Laboratory results: publication PMC5956149

These substances were tested against GFP-tagged MtrB (cytosolic catalytic domain of MtrB with GFP downstream) (Mycobacterium tuberculosis) (assay: MST).

| Substance | Kd |
| --- | --- |
| MtrB wild type (cytosolic catalytic domain) (domain or fragment) | 1170 nM |
| MtrB^H305Q (phosphorylation site mutant, cytosolic catalytic domain) (domain or fragment) | 410 nM |
| MtrB^N419D (mutant defective in ATP binding, cytosolic catalytic domain) (domain or fragment) | 770 nM |
